Reference: the domain aggregation screens of Martell et al. (2025)

Assay: soluble fraction after stress (log2 fold change); higher = more stays soluble; pooled small domains, quantitative proteomics
Details: stress: 50 degC
How it was run: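 The measure of aggregation propensity here is the base-two logarithm of the fold change in the soluble amount of each protein after stress. A higher value means more of that protein stays in solution. Stress was applied at 50°C to pooled libraries of small protein domains, read out by high-throughput quantitative proteomics.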

Sequence | soluble fraction (log2)
HMKEEDLPREYTDILGNSVHERLNIMIHDIIEHSQDKPEVAMSPEREEAMHGLRRWMFDHVYH | -0.202
HMKEEVEILGGKATIYTNDYGVWQFRLWLTTDNKYVRKSLRTKVKDYAITEGEKLYIQIRSDIEKGIKYY | -1.13
HMKEEVSVPDIKGMTYEEAEAKLAKYDLEIEKGETVKASEQYEEGQISSQEPEAGSKVKEGSTIVVDVVE | 0.316
HMKEFSFNGGKVIMNYEADRIQIKHDSRPNQEVITLMKRNGFKWSPTNQAWQRQITGNAIYVTKNLLKS | -1.35
HMKEGGGYGQLRLKEAAIQHAFDLQNALQFIAERGYQAHENTTLKEAANALNLKPIELLELLKSSQ | 0.281
HMKEIDVPNVVGASENAARKLLESYGFQVEVQWENGERVDNAVVKSYSPNGSAKSGSTVTIVLGT | 0.062
HMKEINFTIEESAKGRLDKVIAENVADLTRSQVQSLIKKGQILVNDAPTTNRYQVKPNDQVIIKLPDPV | 0.339
HMKEKLGEFENVFLSVDELQKLKSKLGAETESYIERLSNYIASSGKKYKSHYATILSWTQKDTK | -0.462
HMKELASKYEISEYMKFLIENLDKSNFFYPIEKRESMINNIFSIYSKADLSKKELNMLWGMLKKLR | -2.1
HMKELTELIEKIKLRRLELGLSYQELSDLTGINKSTLQRYETGFIKKVPINQVQIIAKALNVTPGYLMG | -0.28
HMKEMTAKQIDMFSDKLSKLESFQSHYIADAGVSVTEYKQAIAAKLQDQFYVEAWGKYLADVGFT | -0.505
HMKEPIYQTILSALILELNTNHFRKNDPFYSESELRKKYQVSSTTVVRVLNMLADQGYIYRIQGKGSFVSK | -2.37
HMKESFAQLFSLLTPTEQKVAALISQGFSNKDIAAKMFISLSTVKTHTNHIFAKMGVANRNALVAKVNN | -1.08
HMKESRFDYDAVLLYSDKDSITEVKDAVQHLTKEFGSVFTTKKIPEKATFGKLFRIEKGEVNIIEDN | -0.0248
HMKESRLFRILYYLLQHKKATAPELAEEFEVSVRTIYRDIDYISSAGVPIYATQGKDGGIAILDSF | -0.65
HMKETLSINSTDFEVRRSSRRKRISVGFDTGTETFFIAAPTKLAGTDILRILGPQISRLMDRLT | -1.95
HMKEVDERPWGKYEVLLDAPDVKVKRITVNPGQRLSYQYHEKRAEVWTVVSGILTIILEDDKLFRG | 0.237
HMKFIPPSLEEARAYFVEKGSSEPEAEKFVNHFDSIGWKVGRARTPMKKWKSAANNWIANNREWNQ | -0.407
HMKFKDYYAALGIDRNADLEQIKKAYRKLARQYHPDVSKAPDAEARFKDAAEAYATLKNPEKRAAYDELGS | 0.062
HMKFLHLADLHLGKRVNGFSMLEDQAYILRQILTILDDERPDGVLIAGDVYDKPVPPTEAVELLD | -0.604
HMKFLYQKAREEIISLIQDGEIKPSEKIMPERELSELLGYNRMTIKKAINSLVAEGVLMKKRGAGTFLLG | -0.387
HMKFLYQQVYQDIKDKITSAQYQFGDLLPSEREIGEEYHVDRTTVRKAFSLLVDEGLVEKRAGKGSVVIS | -0.594
HMKFTELEQLMLKREINTLADIARVLKTTPQAVSNWKARDQIPYHIVAKINASINKDSNDSSLSI | 0.00789
HMKFTSEKDISLLELVKAKMGFVSNTKARNVIKIGQIMVSGKVIKIPSTLIKPGTEVELARRV | -1.66
HMKFYKMIDESDEKIENPEIMIFQIIELVSSTTYSAIINKEPVDVETLKPYLYQTIRTIIINHQS | 0.144

Sequence | soluble fraction (log2)
HMKGEKVTKIELSNFIKFLINDLENKGFFNPPEKKDSMIDNIYSIYNKMTLTKKELNMLWGMHKKLK | -1.44
HMKGERHNKILELIQQHAIDRQEDLLRYLKEAGFQVTQATVSRDIRELHLVKVAAGGGQYRYVSAAAAS | -0.0903
HMKGIHDYITKDGLRVVKVHYSADPDKDVTTVEGKKWMAKALLGYPGGLEGAKWRREMEIDFNA | -0.0848
HMKGILVPASSIISDGDKNYVWTVEKGKAKKVEVTLGNADAENQEISSGLTKDSKVITNPTDSLKDGQEV | 0.162
HMKGKDLQDAVVTVVGGAENWNAIRAWAQASASDSEKREINAAFQSGKLMATMMAERLALAYQQSG | -0.0897
HMKGKITTNWVSLTSDLGWLRSELYSSGSVLEERISNEGLIELHLENFQNDLIKLLEVEGFDLIKE | -3.1
HMKGQLVVFPNPASSNDMVRFNKNISFSIFDITGHLVDTKRNVNELSVGNLEAGTYILRTEQGDVLRMVI | -1.24
HMKGRPTTAIITDERTNLRSGPGATNKTIAQAGAGEKLAIIDEKDGWYQVSRAGINGWVAGWVIDVAW | -0.441
HMKGSIFLDEATKMVDNSALKSLNTFLEEYARETNNQIFLISHQETPAEVTQIKLKKVGGETSYE | 0.124
HMKGSPFSQLPKEKKKRILQAAIEVFAQNDYKHASTDEIASRAGISKGLLFYYFHDKKTLYFYLGEYLKR | -0.0373
HMKGTLPEMITSREEVVLKFMVNGWDAKRIASELDISVLTVRKHIANIYEKLHVQSKAEIISMAHQQKWFN | -1.52
HMKGTSIELIVPQDIAGLRLDQVLAKLLPQWSRSRLQSWINEKHITVNGQTTTAKQKLWGNETIQIIPPI | -0.66
HMKHEFSEEWLDWIKSNIADGQNKNGLFKVLLNHGYAYDAVREVMQYEPTVPLDELVDPLRA | -0.139
HMKHFNDEELDGFAGLKSDDYNEEQVELFRNIFEELHPDEIIEWTESLRRRGIEIPSSLKDEVVMMIN | 0.173
HMKHFTYEEMELMSIYDPGTREGLIANLEEMRGYLEPDETELRELTDSALEKLRELSDADYEQLELI | -0.476
HMKHMTMYEAAKIAKEVGAPKLWLTHYSPSMTRPEEFMDDVRKIFPAAYAAKDGWTMELNFDEG | -0.493
HMKHRTQMDIQQLPAIEGKGGFEYKISIIHLSTRIKYSEIHDNYNTTTIAKVYENAIERLPPF | -2.24
HMKHSLNHLGLWLLPELSRRDIQLREFAHLLGTTSQGLSDLLRGQRFSSHTLAQWQLRFQEKLDEIDQAS | -1.11
HMKHTVSVDRLQPGVFVSLGGLSWLDHPFLLNRFRLTDHDQIKVLRSLGVKEIEWDPTRSTAQPLPE | -0.437
HMKIAPRTAENQQLRKMILEIYTTSKKRVGPAKVRRMLLRDYGISISIGRVYRLMSTMNLPKMS | -0.258
HMKIDLPIWLNKKAWEAWVEYKKERKQKLTPSIIKFQLRILEKNKEDHPEIIRNSITNGWTGLFPLK | -1.27
HMKIEDSNTIKLKANQAYKTHYYSEAIKLYDELLTKYEPNSEAIKLNLAHAHFKAKGFAAASKLYT | 0.144
HMKIELTDQQKSLVVDEWNKGEANPPSLLQLIRLAYPDQPHLDGRSKEGKAVKAFLATRDINPLA | 0.0239
HMKIETVENPLLERTEISALFDSKSGSLTRKEAIDLISKKARIDSSTVYAIKLSNSSGSTRIIGLFY | 0.0692
HMKIIDDIQEFAGVTKTQNTFFHIFNHLHQNGKQLILTSDRAPVMLQGMEERLLTRFKWGLVAELE | 0.257

Sequence | soluble fraction (log2)
HMKIKKIWFDGDYIYGMDERNNTYRQSLLWYSKLRNASAEERERYTFSTIGIHWRELDEDVSFESF | -3.14
HMKIKLQATEQQRKTLDELYVQLKKLEPTSKEDLSLLYRLENPHLVSKQEAQGLISIAIGRVGSLAIEQQ | -0.27
HMKINKQHLAFQIFGIRAKLGLSMEQFGELLGANKSSVSGWERGTVVPSSQRLKKIAELGKISLAELLTP | -1.23
HMKINVQETEVYRYLLERADRLYSMILGEERENLMERTRFFEKEVAKASLPHLPKLYDEFSIYLDRLERG | -0.138
HMKIPYGELIKLLNAAAPKLQDAQGWMDMEAAGQFIGSRWSYLDYGFKDWPDSFKTVHGLEIQGQRMRLA | -0.452
HMKIQISGSQRIDENVVVKVAGLSFPQSLLSLEPGQIESKLMQELPVQEVSVQRRLLPPGLDIQLVE | 0.0631
HMKIQTYEDFRNAYPDIQGSLFGSAERYKTDLDWGDVAAKYDADEELKNVRNIFQLVRRYEQKYS | 0.332
HMKISIPQEYFEIYNVLKQRPMHINEISKILKKPVSEISGTISLMEIEGYITKLTTDQYVLKKI | -0.143
HMKITADQEIETAINYFKKSIAEKGWKGVNPDEFKQMNDYLSETFGYSATIKFQKALDEQGLMVDE | 0.0602
HMKITININIETLSHHIKQSGVPLGRLQESVPDYNEIVTGNKSPTYQQLEKISKLIRVPLGLLVIESPL | 0.268
HMKITLAESVYERIRRDIITNQLKPGEKINIRELSTRYEASETPIRLALNRLASENIIEHFPRQGMRVK | -0.371
HMKIVPEPGTVLIREYQEERHEVTVTLDGAFDYKGTLYSSLSEIARLITGTRWSGPVFFGLRS | -0.4
HMKIYDQVVDRIKDRISKGDMPQGSALPPERQLIDELNVSRSSLREGFRILEMMGLIESIPGKGRFVRTSR | -0.235
HMKKAIYPGSFDPLTLGHIDIIKRASGIVDELVVGVLNNSAKNSLFSLDERVSMIEEMTKDLPNVSVTSFD | 0.136
HMKKEDFLEILRDYLKKGFSEDEVMDILRDYEEYFVDGIIEGKSEIEIIQSLGSPKEIANELLAES | -0.202
HMKKEQVIVPNVVGDTYDVALRKLTDAKLKVGETFPADREGHQGVIEKQSPAAGETVDEDTPVALFFKV | 0.0344
HMKKERITWDERLERFAKYITENESLPYPSSKEHAWFEENKALYDAGELESVRAQSFSFLLKILRRMNLI | -0.278
HMKKGATVSGVIVEKTKKSLIIDLGAKTEGVVADKEFEFAIDFVKELKKGDEVKAIVISTDNDKGQVVLSL | -0.155
HMKKHALFTLFKHHNANGTTVWYARFWDDATQRYAIARSTGVLAQGKRERHDEAITVAREMASSIQFS | -2.6
HMKKHAPSLMRQIRRELKEGKSPESLLSKAKLISDSYYRSLSFYLLIPYLSPNSKQFQEAISLAGKDID | 0.255
HMKKKSYIVSFATDEDAQRFAREGFEVISLSGRQITVSLKGEMMPLVKALGSYQVVGLETVA | -0.19
HMKKLPDDANDIIERVSSRLAQKFRFGYHTIDDMKQQAALFAWEGIYDSWDDSRPLENFLWIHVRNRLYN | -0.00948
HMKKLTGVQKAAILMIALGPDISSSIIKRLPENMVERITYEIANMTKITAQQRNDILKEFMDMTVAQ | -1.02
HMKKNTEALDYYKKAGANFPEDEVISSEYLFRAAQLQEVLGKTDEAVAIYKDIKAKYPTTEIGLNVDKFIL | -0.0868
HMKKQLKSEAVADELRRKILSGGFPDKRLPRKDELTEYFQVSQKTVEAALKMLTAEGLIRGVKGTGIFVNG | -0.0396
